Assay [1] concerns the target histone deacetylase 1 (HDAC1), Xenopus (Xenopus laevis (endogenous in egg nucleoplasmic extract)). Briefly: immunodepletion (co-depletion), Western blot of the depleted extract; antibody on Protein-A Sepharose incubated with NPE at 4 °C for 1 h over two rounds; depleted extract blotted. (In general: A western blot detects proteins with antibodies after separation by electrophoresis.)

The target is the same in assay [2]. Briefly: co-IP; sequential IPs from NPE diluted 5x in ELB (10 mM Hepes-KOH pH 7.7, 2.5 mM MgCl2, 50 mM KCl, 250 mM sucrose), serum or antibody on Protein-A Sepharose, 4 °C 120 min, three washes; first round HDAC1 or HDAC2 IP, second round the converse antibody on the supernatant; supernatant and pellet by Western blot.

This is an account of results in paper PMC9650048.

In the case of “histone deacetylase 2 (HDAC2), Xenopus (enzyme)”, in assay [1], the percent of HDAC2 codepleted with HDAC1 came out at 50%. In addition, the percent of HDAC2 removed by the HDAC1 IP in assay [2] was found to be 50%.
